Eight molecules from patent US20160272683A1 (Novo Nordisk, published 2016) can be followed below.

Experiment [1] addresses T1, human amylin 3(a) receptor (human calcitonin receptor co-expressed with RAMP-3) (human, UniProt P30988 25-474; O60896 24-148, limits assumed).
T1 sequence (looked up) 1: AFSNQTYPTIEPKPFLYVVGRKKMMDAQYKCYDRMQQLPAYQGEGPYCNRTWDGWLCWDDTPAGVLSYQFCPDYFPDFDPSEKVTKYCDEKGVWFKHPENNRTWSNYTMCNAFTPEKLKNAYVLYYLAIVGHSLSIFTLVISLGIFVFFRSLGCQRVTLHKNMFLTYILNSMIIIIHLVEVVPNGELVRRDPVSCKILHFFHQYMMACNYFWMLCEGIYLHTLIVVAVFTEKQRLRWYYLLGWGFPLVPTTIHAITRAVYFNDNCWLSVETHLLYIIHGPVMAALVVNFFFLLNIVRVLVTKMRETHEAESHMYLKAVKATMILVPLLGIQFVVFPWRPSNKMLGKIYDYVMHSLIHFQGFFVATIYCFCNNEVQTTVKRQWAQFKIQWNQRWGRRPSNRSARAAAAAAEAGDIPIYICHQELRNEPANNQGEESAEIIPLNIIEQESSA
T1 sequence (looked up) 2: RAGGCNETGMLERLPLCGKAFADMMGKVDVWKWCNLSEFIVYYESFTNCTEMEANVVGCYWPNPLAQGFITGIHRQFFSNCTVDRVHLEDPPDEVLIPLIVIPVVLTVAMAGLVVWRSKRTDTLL
Kind of experiment: cell-based or functional assay.

The target in experiment [2] is T2, human calcitonin receptor (human, UniProt P30988 25-474).
T2 sequence (looked up): T1 sequence (looked up) 1
Kind of experiment: cell-based or functional assay.

Numbered stars: 1 amine (or outer) side, 2 acyl side, 3 side chain; on linkers, the order of the positions; unused ones are H or OH. * marks the point of attachment. C20 diacid = O=C(O)CCCCCCCCCCCCCCCCCCC(=O)*; C18 diacid = O=C(O)CCCCCCCCCCCCCCCCC(=O)*; γGlu = O=C(O)[C@H](CCC(=O)[*:2])N[*:1]

B1: [N-terminal(C20 diacid-gGlu), des1, 4G, 9V, 15Q, 21Q, 23Y, 25P, 30S, 31Q, 32T, 33Y]mimylin (peptide)
peptide: {C20 diacid-γGlu}-ASGLSTAVLGRLSQELHELQTYPPTETGSQTY-NH2
SMILES: CC(C)C[C@H](NC(=O)CNC(=O)[C@H](CO)NC(=O)[C@H](C)NC(=O)CC[C@H](NC(=O)CCCCCCCCCCCCCCCCCCC(=O)O)C(=O)O)C(=O)N[C@@H](CO)C(=O)N[C@H](C(=O)N[C@@H](C)C(=O)N[C@H](C(=O)N[C@@H](CC(C)C)C(=O)NCC(=O)N[C@@H](CCCNC(=N)N)C(=O)N[C@@H](CC(C)C)C(=O)N[C@@H](CO)C(=O)N[C@@H](CCC(N)=O)C(=O)N[C@@H](CCC(=O)O)C(=O)N[C@@H](CC(C)C)C(=O)N[C@@H](Cc1c[nH]cn1)C(=O)N[C@@H](CCC(=O)O)C(=O)N[C@@H](CC(C)C)C(=O)N[C@@H](CCC(N)=O)C(=O)N[C@H](C(=O)N[C@@H](Cc1ccc(O)cc1)C(=O)N1CCC[C@H]1C(=O)N1CCC[C@H]1C(=O)N[C@H](C(=O)N[C@@H](CCC(=O)O)C(=O)N[C@H](C(=O)NCC(=O)N[C@@H](CO)C(=O)N[C@@H](CCC(N)=O)C(=O)N[C@H](C(=O)N[C@@H](Cc1ccc(O)cc1)C(N)=O)[C@@H](C)O)[C@@H](C)O)[C@@H](C)O)[C@@H](C)O)C(C)C)[C@@H](C)O
On to B1, for which the “hAmylin-R funct. EC50 (pM)” value in experiment [1] came to 70 pM. Also, in experiment [2], the “hCTR funct. EC50 (pM)” value is 57 pM.

B2: [N-terminal(C20 diacid-gGlu), des1, 2L, 4G, 9V, 15Q, 21Q, 23Y, 30S, 31Q, 32T, 33Y]mimylin (peptide)
peptide: {C20 diacid-γGlu}-LSGLSTAVLGRLSQELHELQTYPRTETGSQTY-NH2
SMILES: CC(C)C[C@H](NC(=O)CC[C@H](NC(=O)CCCCCCCCCCCCCCCCCCC(=O)O)C(=O)O)C(=O)N[C@@H](CO)C(=O)NCC(=O)N[C@@H](CC(C)C)C(=O)N[C@@H](CO)C(=O)N[C@H](C(=O)N[C@@H](C)C(=O)N[C@H](C(=O)N[C@@H](CC(C)C)C(=O)NCC(=O)N[C@@H](CCCNC(=N)N)C(=O)N[C@@H](CC(C)C)C(=O)N[C@@H](CO)C(=O)N[C@@H](CCC(N)=O)C(=O)N[C@@H](CCC(=O)O)C(=O)N[C@@H](CC(C)C)C(=O)N[C@@H](Cc1c[nH]cn1)C(=O)N[C@@H](CCC(=O)O)C(=O)N[C@@H](CC(C)C)C(=O)N[C@@H](CCC(N)=O)C(=O)N[C@H](C(=O)N[C@@H](Cc1ccc(O)cc1)C(=O)N1CCC[C@H]1C(=O)N[C@@H](CCCNC(=N)N)C(=O)N[C@H](C(=O)N[C@@H](CCC(=O)O)C(=O)N[C@H](C(=O)NCC(=O)N[C@@H](CO)C(=O)N[C@@H](CCC(N)=O)C(=O)N[C@H](C(=O)N[C@@H](Cc1ccc(O)cc1)C(N)=O)[C@@H](C)O)[C@@H](C)O)[C@@H](C)O)[C@@H](C)O)C(C)C)[C@@H](C)O
In the case of B2, in experiment [1], the “hAmylin-R funct. EC50 (pM)” value amounted to 31 pM. The “hCTR funct. EC50 (pM)” value in experiment [2] worked out at 31 pM.

B3: [N-terminal(C20 diacid-gGlu), des1, 2L, 4G, 9V, 21S, 23Y, 30S, 31G, 32T, 33Y]mimylin (peptide)
peptide: {C20 diacid-γGlu}-LSGLSTAVLGRLSAELHELSTYPRTETGSGTY-NH2
SMILES: CC(C)C[C@H](NC(=O)CC[C@H](NC(=O)CCCCCCCCCCCCCCCCCCC(=O)O)C(=O)O)C(=O)N[C@@H](CO)C(=O)NCC(=O)N[C@@H](CC(C)C)C(=O)N[C@@H](CO)C(=O)N[C@H](C(=O)N[C@@H](C)C(=O)N[C@H](C(=O)N[C@@H](CC(C)C)C(=O)NCC(=O)N[C@@H](CCCNC(=N)N)C(=O)N[C@@H](CC(C)C)C(=O)N[C@@H](CO)C(=O)N[C@@H](C)C(=O)N[C@@H](CCC(=O)O)C(=O)N[C@@H](CC(C)C)C(=O)N[C@@H](Cc1c[nH]cn1)C(=O)N[C@@H](CCC(=O)O)C(=O)N[C@@H](CC(C)C)C(=O)N[C@@H](CO)C(=O)N[C@H](C(=O)N[C@@H](Cc1ccc(O)cc1)C(=O)N1CCC[C@H]1C(=O)N[C@@H](CCCNC(=N)N)C(=O)N[C@H](C(=O)N[C@@H](CCC(=O)O)C(=O)N[C@H](C(=O)NCC(=O)N[C@@H](CO)C(=O)NCC(=O)N[C@H](C(=O)N[C@@H](Cc1ccc(O)cc1)C(N)=O)[C@@H](C)O)[C@@H](C)O)[C@@H](C)O)[C@@H](C)O)C(C)C)[C@@H](C)O
With B3, in experiment [1], the “hAmylin-R funct. EC50 (pM)” value was determined as 24 pM. Moreover, the “hCTR funct. EC50 (pM)” value in experiment [2] was determined as 28 pM.

B4: [N-terminal(C18 diacid), 20I]mimylin (peptide)
peptide: {C18 diacid}-EASELSTAALGRLSAELHEIATLPRTETGPESP-NH2
SMILES: CC[C@H](C)[C@H](NC(=O)[C@H](CCC(=O)O)NC(=O)[C@H](Cc1c[nH]cn1)NC(=O)[C@H](CC(C)C)NC(=O)[C@H](CCC(=O)O)NC(=O)[C@H](C)NC(=O)[C@H](CO)NC(=O)[C@H](CC(C)C)NC(=O)[C@H](CCCNC(=N)N)NC(=O)CNC(=O)[C@H](CC(C)C)NC(=O)[C@H](C)NC(=O)[C@H](C)NC(=O)[C@@H](NC(=O)[C@H](CO)NC(=O)[C@H](CC(C)C)NC(=O)[C@H](CCC(=O)O)NC(=O)[C@H](CO)NC(=O)[C@H](C)NC(=O)[C@H](CCC(=O)O)NC(=O)CCCCCCCCCCCCCCCCC(=O)O)[C@@H](C)O)C(=O)N[C@@H](C)C(=O)N[C@H](C(=O)N[C@@H](CC(C)C)C(=O)N1CCC[C@H]1C(=O)N[C@@H](CCCNC(=N)N)C(=O)N[C@H](C(=O)N[C@@H](CCC(=O)O)C(=O)N[C@H](C(=O)NCC(=O)N1CCC[C@H]1C(=O)N[C@@H](CCC(=O)O)C(=O)N[C@@H](CO)C(=O)N1CCC[C@H]1C(N)=O)[C@@H](C)O)[C@@H](C)O)[C@@H](C)O
Turning to B4, the “hAmylin-R funct. EC50 (pM)” value in experiment [1] came to 6 pM. For the same molecule, the “hCTR funct. EC50 (pM)” value in experiment [2] was determined as 5 pM.

B5: [N-terminal(C20 diacid-gGlu), des1, 4G, 9T, 15Q, 21Q, 23Y, 25P, 30S, 31G, 32T, 33Y]mimylin (peptide)
peptide: {C20 diacid-γGlu}-ASGLSTATLGRLSQELHELQTYPPTETGSGTY-NH2
SMILES: CC(C)C[C@H](NC(=O)CNC(=O)[C@H](CO)NC(=O)[C@H](C)NC(=O)CC[C@H](NC(=O)CCCCCCCCCCCCCCCCCCC(=O)O)C(=O)O)C(=O)N[C@@H](CO)C(=O)N[C@H](C(=O)N[C@@H](C)C(=O)N[C@H](C(=O)N[C@@H](CC(C)C)C(=O)NCC(=O)N[C@@H](CCCNC(=N)N)C(=O)N[C@@H](CC(C)C)C(=O)N[C@@H](CO)C(=O)N[C@@H](CCC(N)=O)C(=O)N[C@@H](CCC(=O)O)C(=O)N[C@@H](CC(C)C)C(=O)N[C@@H](Cc1c[nH]cn1)C(=O)N[C@@H](CCC(=O)O)C(=O)N[C@@H](CC(C)C)C(=O)N[C@@H](CCC(N)=O)C(=O)N[C@H](C(=O)N[C@@H](Cc1ccc(O)cc1)C(=O)N1CCC[C@H]1C(=O)N1CCC[C@H]1C(=O)N[C@H](C(=O)N[C@@H](CCC(=O)O)C(=O)N[C@H](C(=O)NCC(=O)N[C@@H](CO)C(=O)NCC(=O)N[C@H](C(=O)N[C@@H](Cc1ccc(O)cc1)C(N)=O)[C@@H](C)O)[C@@H](C)O)[C@@H](C)O)[C@@H](C)O)[C@@H](C)O)[C@@H](C)O
For B5, the “hAmylin-R funct. EC50 (pM)” value in experiment [1] was 23 pM. In experiment [2], the “hCTR funct. EC50 (pM)” value was determined as 19 pM.

B6: [N-terminal(C20 diacid-gGlu), des1, 4G, 9V, 15Q, 21Q, 23Y, 30S, 31A, 32T, 33Y]mimylin (peptide)
peptide: {C20 diacid-γGlu}-ASGLSTAVLGRLSQELHELQTYPRTETGSATY-NH2
SMILES: CC(C)C[C@H](NC(=O)CNC(=O)[C@H](CO)NC(=O)[C@H](C)NC(=O)CC[C@H](NC(=O)CCCCCCCCCCCCCCCCCCC(=O)O)C(=O)O)C(=O)N[C@@H](CO)C(=O)N[C@H](C(=O)N[C@@H](C)C(=O)N[C@H](C(=O)N[C@@H](CC(C)C)C(=O)NCC(=O)N[C@@H](CCCNC(=N)N)C(=O)N[C@@H](CC(C)C)C(=O)N[C@@H](CO)C(=O)N[C@@H](CCC(N)=O)C(=O)N[C@@H](CCC(=O)O)C(=O)N[C@@H](CC(C)C)C(=O)N[C@@H](Cc1c[nH]cn1)C(=O)N[C@@H](CCC(=O)O)C(=O)N[C@@H](CC(C)C)C(=O)N[C@@H](CCC(N)=O)C(=O)N[C@H](C(=O)N[C@@H](Cc1ccc(O)cc1)C(=O)N1CCC[C@H]1C(=O)N[C@@H](CCCNC(=N)N)C(=O)N[C@H](C(=O)N[C@@H](CCC(=O)O)C(=O)N[C@H](C(=O)NCC(=O)N[C@@H](CO)C(=O)N[C@@H](C)C(=O)N[C@H](C(=O)N[C@@H](Cc1ccc(O)cc1)C(N)=O)[C@@H](C)O)[C@@H](C)O)[C@@H](C)O)[C@@H](C)O)C(C)C)[C@@H](C)O
As for B6, in experiment [1], the “hAmylin-R funct. EC50 (pM)” value worked out at 53 pM. Besides, in experiment [2], the “hCTR funct. EC50 (pM)” value worked out at 52 pM.

On to {C20 diacid-γGlu}-ASGLSTATLGRLSQELHELQTYPRTETGSGTY-NH2 [[N-terminal(C20 diacid-gGlu), des1, 4G, 9T, 15Q, 21Q, 23Y, 30S, 31G, 32T, 33Y]mimylin], for which the “hAmylin-R funct. EC50 (pM)” value in experiment [1] turned out to be 40 pM. In experiment [2], the “hCTR funct. EC50 (pM)” value was 34 pM.

B7: [N-terminal(C20 diacid-gGlu), des1, 4G, 8L, 9V, 15Q, 21Q, 23Y, 30S, 31Q, 32T, 33Y]mimylin (peptide)
peptide: {C20 diacid-γGlu}-ASGLSTLVLGRLSQELHELQTYPRTETGSQTY-NH2
SMILES: CC(C)C[C@H](NC(=O)CNC(=O)[C@H](CO)NC(=O)[C@H](C)NC(=O)CC[C@H](NC(=O)CCCCCCCCCCCCCCCCCCC(=O)O)C(=O)O)C(=O)N[C@@H](CO)C(=O)N[C@H](C(=O)N[C@@H](CC(C)C)C(=O)N[C@H](C(=O)N[C@@H](CC(C)C)C(=O)NCC(=O)N[C@@H](CCCNC(=N)N)C(=O)N[C@@H](CC(C)C)C(=O)N[C@@H](CO)C(=O)N[C@@H](CCC(N)=O)C(=O)N[C@@H](CCC(=O)O)C(=O)N[C@@H](CC(C)C)C(=O)N[C@@H](Cc1c[nH]cn1)C(=O)N[C@@H](CCC(=O)O)C(=O)N[C@@H](CC(C)C)C(=O)N[C@@H](CCC(N)=O)C(=O)N[C@H](C(=O)N[C@@H](Cc1ccc(O)cc1)C(=O)N1CCC[C@H]1C(=O)N[C@@H](CCCNC(=N)N)C(=O)N[C@H](C(=O)N[C@@H](CCC(=O)O)C(=O)N[C@H](C(=O)NCC(=O)N[C@@H](CO)C(=O)N[C@@H](CCC(N)=O)C(=O)N[C@H](C(=O)N[C@@H](Cc1ccc(O)cc1)C(N)=O)[C@@H](C)O)[C@@H](C)O)[C@@H](C)O)[C@@H](C)O)C(C)C)[C@@H](C)O
In the case of B7, the “hAmylin-R funct. EC50 (pM)” value in experiment [1] worked out at 52 pM. Also, the “hCTR funct. EC50 (pM)” value in experiment [2] is 40 pM.
